{"source": "paper PMC8748511", "about": "(Nature Communications, 2022)", "binders": {"B1": {"name": "H5 (VHH)", "VHH": "QVQLVESGGGLVQPGGSLRLSCAASGVTLDDYAIGWFRQAPGKEREGVSFITSSDGSTFYVDSVKGRFTIARDNAKNTVYLQMNALTPEDTAVYYCAVGPSFSSTGSTYYRSELPWDYDYWGQGTQVTVSS"}, "B2": {"name": "H8 (VHH)", "VHH": "B1 VHH with V27F, V48I, F59Y, A71S, A85D, S104Y"}, "B3": {"name": "H10 (VHH)", "VHH": "B1 VHH with V27F, F59Y, T69A, A71S, A85S, S104R, E113V"}, "B4": {"name": "H11 (VHH)", "VHH": "B1 VHH with V27L, F59Y, A71S, A85S, S104Y, E113T"}, "B5": {"name": "H7 (VHH)", "VHH": "B1 VHH with V27F, F59Y, D62A, A71S, A85D, S104Y"}, "B6": {"name": "H6 (VHH)", "VHH": "B1 VHH with V27F, F59Y, A71S, A85S, S104Y, E113V"}, "B7": {"name": "H9 (VHH)", "VHH": "B1 VHH with V27F, G35A, F59Y, A71S, A85D, S104Y"}}, "note": "Numbering of substitutions follows the chain as printed."}
{"target": "SARS-CoV-2 spike receptor binding domain (RBD) (SARS-CoV-2, founder (Wuhan-Hu-1) …, UniProt P0DTC2, amine-PEG3-biotin attached with sortase A at the C-terminal sortase motif (for SPR))"}
{"binder": "B1", "binding result": "binds"}
{"binder": "B2", "binding result": "binds"}
{"binder": "B3", "binding result": "binds"}
{"binder": "B4", "binding result": "binds"}
{"binder": "B5", "binding result": "binds"}
{"binder": "B6", "binding result": "binds"}
{"binder": "B7", "binding result": "binds"}
